T1: human CLDN6 (UniProt P56747 1-220)
T1 chain: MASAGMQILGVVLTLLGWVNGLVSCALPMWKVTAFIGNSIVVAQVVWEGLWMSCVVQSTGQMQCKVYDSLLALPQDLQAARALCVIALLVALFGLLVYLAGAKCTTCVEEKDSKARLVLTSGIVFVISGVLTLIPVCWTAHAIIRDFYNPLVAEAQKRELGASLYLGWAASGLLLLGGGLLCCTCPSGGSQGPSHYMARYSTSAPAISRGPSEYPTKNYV

T2: human CLDN9 (UniProt O95484 1-217)
T2 chain: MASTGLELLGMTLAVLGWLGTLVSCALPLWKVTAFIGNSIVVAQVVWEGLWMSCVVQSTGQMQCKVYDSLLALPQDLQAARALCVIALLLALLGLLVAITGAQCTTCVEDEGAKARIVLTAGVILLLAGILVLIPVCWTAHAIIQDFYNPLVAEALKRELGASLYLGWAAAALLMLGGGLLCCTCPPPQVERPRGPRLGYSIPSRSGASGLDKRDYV


Key:
[1] = biological target: T1, human CLDN6; assay: HEK293E cell binding; avid
[2] = biological target: T2, human CLDN9; assay: HEK293E cell binding; avid

Binder	EC50 [1]	EC50 [2]
XENP35070 H2_L1.27 (antibody, V domains shown) VH: EVQLVQSGAEVKKPGESLRISCKTSGYTFTEYTMHWVRQMPGKSLEWMGGIDPNNGNTHYNQKFQGHVTISVDKSISTAYLQWSSLKASDTAMYYCARIYYFGRLYFDFWGAGTLVTVSS VL: DIQMTQSPSSLSASVGDRVTITCQASEDIYNRLAWYQQKPGKVPKLLISGATSLESGVPSRFSGSGSGKDYTFTISSLQPEDIATYYCQQYWSSPLTFGGGTKVEIKR	1.18 µg/mL	29.7 µg/mL
XENP35101 having H2.8_L1 (antibody, V domains shown) VH: EVQLVQSGAEVKKPGESLRISCKTSGYTFTEYTMHWVRQMPGKSLEWMGGIDPNNDNTHYNQKFQGHVTISVDKSISTAYLQWSSLKASDTAMYYCARIYYFGRLYFDFWGAGTLVTVSS VL: DIQMTQSPSSLSASVGDRVTITCQASEDIYNRLAWYQQKPGKVPKLLISGATSLETGVPSRFSGSGSGKDYTFTISSLQPEDIATYYCQQYWSSPLTFGGGTKVEIKR	24.8 µg/mL	1.06 µg/mL
XENP35093 (having C6-30 H1.9_L1) (antibody, V domains shown) VH: QVQLVQSGAEVKKPGASVKVSCKTSGYTFTEYTMHWVRQAPGQSLEWMGGIDPNNANTHYNQKFQGRVTITVDKSASTAYMELSSLRSEDTAVYYCARIYYFGRLYFDFWGAGTLVTVSS VL: DIQMTQSPSSLSASVGDRVTITCQASEDIYNRLAWYQQKPGKVPKLLISGATSLETGVPSRFSGSGSGKDYTFTISSLQPEDIATYYCQQYWSSPLTFGGGTKVEIKR	0.978 µg/mL	53.1 µg/mL
XENP35096 H2.3_L1 (antibody, V domains shown) VH: EVQLVQSGAEVKKPGESLRISCKTSGYTFTEYTMHWVRQMPGKSLEWMGGIDSNNGNTHYNQKFQGHVTISVDKSISTAYLQWSSLKASDTAMYYCARIYYFGRLYFDFWGAGTLVTVSS VL: DIQMTQSPSSLSASVGDRVTITCQASEDIYNRLAWYQQKPGKVPKLLISGATSLETGVPSRFSGSGSGKDYTFTISSLQPEDIATYYCQQYWSSPLTFGGGTKVEIKR	1.24 µg/mL	110 µg/mL
XENP35088 H1.4_L1 (antibody, V domains shown) VH: QVQLVQSGAEVKKPGASVKVSCKTSGYTFTEYTMHWVRQAPGQSLEWMGGIDANNGNTHYNQKFQGRVTITVDKSASTAYMELSSLRSEDTAVYYCARIYYFGRLYFDFWGAGTLVTVSS VL: DIQMTQSPSSLSASVGDRVTITCQASEDIYNRLAWYQQKPGKVPKLLISGATSLETGVPSRFSGSGSGKDYTFTISSLQPEDIATYYCQQYWSSPLTFGGGTKVEIKR	1.29 µg/mL	29.2 µg/mL
XENP35047 H2_L1.4 (antibody, V domains shown) VH: EVQLVQSGAEVKKPGESLRISCKTSGYTFTEYTMHWVRQMPGKSLEWMGGIDPNNGNTHYNQKFQGHVTISVDKSISTAYLQWSSLKASDTAMYYCARIYYFGRLYFDFWGAGTLVTVSS VL: DIQMTQSPSSLSASVGDRVTITCQASEDVYNRLAWYQQKPGKVPKLLISGATSLETGVPSRFSGSGSGKDYTFTISSLQPEDIATYYCQQYWSSPLTFGGGTKVEIKR	0.795 µg/mL	17.6 µg/mL
XENP35064 H2_L1.21 (antibody, V domains shown) VH: EVQLVQSGAEVKKPGESLRISCKTSGYTFTEYTMHWVRQMPGKSLEWMGGIDPNNGNTHYNQKFQGHVTISVDKSISTAYLQWSSLKASDTAMYYCARIYYFGRLYFDFWGAGTLVTVSS VL: DIQMTQSPSSLSASVGDRVTITCQASEDIYNRLAWYQQKPGKVPKLLISGATNLETGVPSRFSGSGSGKDYTFTISSLQPEDIATYYCQQYWSSPLTFGGGTKVEIKR	0.979 µg/mL	14.1 µg/mL
XENP35092 H1.8_L1 (antibody, V domains shown) VH: QVQLVQSGAEVKKPGASVKVSCKTSGYTFTEYTMHWVRQAPGQSLEWMGGIDPNNDNTHYNQKFQGRVTITVDKSASTAYMELSSLRSEDTAVYYCARIYYFGRLYFDFWGAGTLVTVSS VL: DIQMTQSPSSLSASVGDRVTITCQASEDIYNRLAWYQQKPGKVPKLLISGATSLETGVPSRFSGSGSGKDYTFTISSLQPEDIATYYCQQYWSSPLTFGGGTKVEIKR	1.16 µg/mL	25 µg/mL
XENP35097 H2.4_L1 (antibody, V domains shown) VH: EVQLVQSGAEVKKPGESLRISCKTSGYTFTEYTMHWVRQMPGKSLEWMGGIDGNNGNTHYNQKFQGHVTISVDKSISTAYLQWSSLKASDTAMYYCARIYYFGRLYFDFWGAGTLVTVSS VL: DIQMTQSPSSLSASVGDRVTITCQASEDIYNRLAWYQQKPGKVPKLLISGATSLETGVPSRFSGSGSGKDYTFTISSLQPEDIATYYCQQYWSSPLTFGGGTKVEIKR	1.1 µg/mL	72.9 µg/mL
XENP35100 H2.7_L1 (antibody, V domains shown) VH: EVQLVQSGAEVKKPGESLRISCKTSGYTFTEYTMHWVRQMPGKSLEWMGGIDPNQGNTHYNQKFQGHVTISVDKSISTAYLQWSSLKASDTAMYYCARIYYFGRLYFDFWGAGTLVTVSS VL: DIQMTQSPSSLSASVGDRVTITCQASEDIYNRLAWYQQKPGKVPKLLISGATSLETGVPSRFSGSGSGKDYTFTISSLQPEDIATYYCQQYWSSPLTFGGGTKVEIKR	1.14 µg/mL	63.5 µg/mL
XENP35066 H2_L1.23 (antibody, V domains shown) VH: EVQLVQSGAEVKKPGESLRISCKTSGYTFTEYTMHWVRQMPGKSLEWMGGIDPNNGNTHYNQKFQGHVTISVDKSISTAYLQWSSLKASDTAMYYCARIYYFGRLYFDFWGAGTLVTVSS VL: DIQMTQSPSSLSASVGDRVTITCQASEDIYNRLAWYQQKPGKVPKLLISGATSRETGVPSRFSGSGSGKDYTFTISSLQPEDIATYYCQQYWSSPLTFGGGTKVEIKR	1.59 µg/mL	31.8 µg/mL
XENP35087 H1.3_L1 (antibody, V domains shown) VH: QVQLVQSGAEVKKPGASVKVSCKTSGYTFTEYTMHWVRQAPGQSLEWMGGIDSNNGNTHYNQKFQGRVTITVDKSASTAYMELSSLRSEDTAVYYCARIYYFGRLYFDFWGAGTLVTVSS VL: DIQMTQSPSSLSASVGDRVTITCQASEDIYNRLAWYQQKPGKVPKLLISGATSLETGVPSRFSGSGSGKDYTFTISSLQPEDIATYYCQQYWSSPLTFGGGTKVEIKR	1.2 µg/mL	31.8 µg/mL
XENP35061 H2_L1.18 (antibody, V domains shown) VH: EVQLVQSGAEVKKPGESLRISCKTSGYTFTEYTMHWVRQMPGKSLEWMGGIDPNNGNTHYNQKFQGHVTISVDKSISTAYLQWSSLKASDTAMYYCARIYYFGRLYFDFWGAGTLVTVSS VL: DIQMTQSPSSLSASVGDRVTITCQASEDIYNRLAWYQQKPGKVPKLLISGTTSLETGVPSRFSGSGSGKDYTFTISSLQPEDIATYYCQQYWSSPLTFGGGTKVEIKR	1.25 µg/mL	56.3 µg/mL
XENP35065 H2_L1.22 (antibody, V domains shown) VH: EVQLVQSGAEVKKPGESLRISCKTSGYTFTEYTMHWVRQMPGKSLEWMGGIDPNNGNTHYNQKFQGHVTISVDKSISTAYLQWSSLKASDTAMYYCARIYYFGRLYFDFWGAGTLVTVSS VL: DIQMTQSPSSLSASVGDRVTITCQASEDIYNRLAWYQQKPGKVPKLLISGATQLETGVPSRFSGSGSGKDYTFTISSLQPEDIATYYCQQYWSSPLTFGGGTKVEIKR	1.48 µg/mL	69.1 µg/mL
XENP35062 H2_L1.19 (antibody, V domains shown) VH: EVQLVQSGAEVKKPGESLRISCKTSGYTFTEYTMHWVRQMPGKSLEWMGGIDPNNGNTHYNQKFQGHVTISVDKSISTAYLQWSSLKASDTAMYYCARIYYFGRLYFDFWGAGTLVTVSS VL: DIQMTQSPSSLSASVGDRVTITCQASEDIYNRLAWYQQKPGKVPKLLISGASSLETGVPSRFSGSGSGKDYTFTISSLQPEDIATYYCQQYWSSPLTFGGGTKVEIKR	1.23 µg/mL	86.8 µg/mL
XENP35091 H1.7_L1 (antibody, V domains shown) VH: QVQLVQSGAEVKKPGASVKVSCKTSGYTFTEYTMHWVRQAPGQSLEWMGGIDPNQGNTHYNQKFQGRVTITVDKSASTAYMELSSLRSEDTAVYYCARIYYFGRLYFDFWGAGTLVTVSS VL: DIQMTQSPSSLSASVGDRVTITCQASEDIYNRLAWYQQKPGKVPKLLISGATSLETGVPSRFSGSGSGKDYTFTISSLQPEDIATYYCQQYWSSPLTFGGGTKVEIKR	1.43 µg/mL	31.4 µg/mL
XENP35102 having H2.9_L1 (antibody, V domains shown) VH: EVQLVQSGAEVKKPGESLRISCKTSGYTFTEYTMHWVRQMPGKSLEWMGGIDPNNANTHYNQKFQGHVTISVDKSISTAYLQWSSLKASDTAMYYCARIYYFGRLYFDFWGAGTLVTVSS VL: DIQMTQSPSSLSASVGDRVTITCQASEDIYNRLAWYQQKPGKVPKLLISGATSLETGVPSRFSGSGSGKDYTFTISSLQPEDIATYYCQQYWSSPLTFGGGTKVEIKR	3.53 µg/mL	1.43 µg/mL
XENP35050 H2_L1.7 (antibody, V domains shown) VH: EVQLVQSGAEVKKPGESLRISCKTSGYTFTEYTMHWVRQMPGKSLEWMGGIDPNNGNTHYNQKFQGHVTISVDKSISTAYLQWSSLKASDTAMYYCARIYYFGRLYFDFWGAGTLVTVSS VL: DIQMTQSPSSLSASVGDRVTITCQASEDIYSRLAWYQQKPGKVPKLLISGATSLETGVPSRFSGSGSGKDYTFTISSLQPEDIATYYCQQYWSSPLTFGGGTKVEIKR	2.22 µg/mL	99.3 µg/mL
XENP35044 H2_L1.1 (antibody, V domains shown) VH: EVQLVQSGAEVKKPGESLRISCKTSGYTFTEYTMHWVRQMPGKSLEWMGGIDPNNGNTHYNQKFQGHVTISVDKSISTAYLQWSSLKASDTAMYYCARIYYFGRLYFDFWGAGTLVTVSS VL: DIQMTQSPSSLSASVGDRVTITCQASQDIYNRLAWYQQKPGKVPKLLISGATSLETGVPSRFSGSGSGKDYTFTISSLQPEDIATYYCQQYWSSPLTFGGGTKVEIKR	4.34 µg/mL	–
